For this test, the target named is T1, human prostate specific membrane antigen (PSMA) (human, UniProt Q04609 1-750).
T1 construct: PSMA was on the cell surface: LNCaP and 22Rv1 (endogenous), PC3-PSMA and Jurkat-PSMA (lentiviral transduction); also called hPSMA
The experiment in a line: flow cytometry of phage scFv clones after cell panning on Jurkat-PSMA (parental Jurkat as negative selection). An excerpt: A collection of human scFv antibody phage display libraries (diversity=10×10¹⁰) constructed by Eureka Therapeutics (i.e., the E-ALPHA® phage display library) was used for the selection of human mAbs specific to PSMA. Specifically, the E-ALPHA® phage display library was used to pan against a Jurkat cell line that has been engineered to express PSMA. The parental Jurkat cell line was used for negative selection. […] The VL in each scFv is underlined, the VH in each scFv is double underlined, and the linker is in bold italic type. The CDRs are in underlined bold type and double underlined bold type.
(In general: Flow cytometry measures light scatter and fluorescence of single cells or particles in a stream.)

Data on one molecule can be found in patent US20220185910A1 (EUREKA THERAPEUTICS, published 2022).

T1 sequence (Q04609 whole entry): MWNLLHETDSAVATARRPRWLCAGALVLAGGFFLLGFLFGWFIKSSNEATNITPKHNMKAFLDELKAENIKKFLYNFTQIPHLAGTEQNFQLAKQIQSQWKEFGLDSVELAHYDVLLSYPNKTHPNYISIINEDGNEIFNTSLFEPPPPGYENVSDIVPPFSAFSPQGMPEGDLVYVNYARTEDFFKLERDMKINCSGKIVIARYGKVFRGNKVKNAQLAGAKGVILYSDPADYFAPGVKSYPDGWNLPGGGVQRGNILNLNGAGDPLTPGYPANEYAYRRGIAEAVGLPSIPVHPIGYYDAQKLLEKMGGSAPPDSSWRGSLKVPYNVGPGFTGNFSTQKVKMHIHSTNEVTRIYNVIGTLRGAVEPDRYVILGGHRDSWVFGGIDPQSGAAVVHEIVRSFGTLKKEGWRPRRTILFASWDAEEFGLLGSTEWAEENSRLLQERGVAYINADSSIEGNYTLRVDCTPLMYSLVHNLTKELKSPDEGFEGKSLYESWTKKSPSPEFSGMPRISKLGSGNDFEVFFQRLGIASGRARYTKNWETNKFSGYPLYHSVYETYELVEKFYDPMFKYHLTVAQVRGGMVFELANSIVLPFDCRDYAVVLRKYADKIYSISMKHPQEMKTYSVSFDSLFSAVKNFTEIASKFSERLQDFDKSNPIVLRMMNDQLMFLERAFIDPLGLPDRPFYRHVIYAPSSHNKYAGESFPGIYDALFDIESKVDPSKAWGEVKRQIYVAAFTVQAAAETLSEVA

B1: Clone A anti-PSMA scFv (scFv)
scFv: QSVLTQPPSVSGAPGQRVTISCTGSSSNIGAGYDVHWYQQLPGTAPKLLIYGNSNRPSGVPDRFSGSKSGTSASLAITGLQAEDEADYYCQSYDSSLSGYVFGTGTKVTVLGSRGGGGSGGGGSGGGGSLEMAEVQLVQSGAEVKKPGESLKISCKGSGYSFTSYWIGWVRQMPGKGLEWMGIIYPGDSDTRYSPSFQGQVTISADKSISTAYLQWSSLKASDTAMYYCARSMGSSLYASSDVWGQGTLVTVSS
notes: Human scFv (VL-linker-VH) isolated from the E-ALPHA phage display library; the phage coat fusion is not described; also called phage clone A
On to B1, for which the binding result is “binds”.
